# Where two headings read alike, the source gives them in different places.
# System: HuB (Hel-N2, ELAV-like), Q12926-2
# Conditions: increase in HuB RNP on differentiation
# Chain of HuB (Hel-N2, ELAV-like), Q12926-2 (Q12926 other isoform, or with tags, fused parts or gaps): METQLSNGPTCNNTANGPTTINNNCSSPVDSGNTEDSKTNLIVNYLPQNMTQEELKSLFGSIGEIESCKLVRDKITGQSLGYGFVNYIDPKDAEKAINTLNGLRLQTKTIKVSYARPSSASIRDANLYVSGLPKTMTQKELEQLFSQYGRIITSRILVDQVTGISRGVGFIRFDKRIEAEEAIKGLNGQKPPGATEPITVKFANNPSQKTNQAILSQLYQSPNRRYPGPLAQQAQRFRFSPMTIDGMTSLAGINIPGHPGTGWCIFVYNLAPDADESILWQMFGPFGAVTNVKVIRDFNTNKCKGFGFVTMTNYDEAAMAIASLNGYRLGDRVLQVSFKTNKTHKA
substance,measurement,setting,value
CACN (calcium channel beta 3) mRNA,binding signal,total RNA +1.31,14.5 fold
CELSR mRNA,binding signal,total RNA -1.33,9.41 fold
MBNL mRNA,binding signal,total RNA +1.42,8.95 fold

# — patent US20030211466
